Test results from patent publication US20220184120A1 (MINERVA BIOTECHNOLOGIES, published 2022).
Numbering of substitutions follows the chain as printed.

T1: N+9/C-9 peptide (9 amino acids added onto the N-terminus and 9 deleted from the C-terminus of PSMGFR)
T1 peptide: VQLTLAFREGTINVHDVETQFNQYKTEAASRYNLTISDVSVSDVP

T2: C-10 peptide (PSMGFR minus 10 amino acids from the C-terminus)
T2 construct: also called C-10 PSMGFR; PSMGFR C-10
T2 peptide: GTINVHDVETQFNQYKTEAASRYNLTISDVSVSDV

T3: PSMGFR peptide (Primary Sequence of the MUC1 Growth Factor Receptor)
T3 construct: synthetic peptide immobilised on ELISA plates; also called MUC1* peptide; MUC1* extra cellular domain peptide
T3 peptide: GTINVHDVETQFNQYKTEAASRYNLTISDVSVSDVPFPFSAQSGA

T4: NME7-AB (recombinant) (Homo sapiens (Human), UniProt Q9Y5B8 92-376)
T4 construct: the entry ends in a His tag; also called NM23-H7
T4 sequence: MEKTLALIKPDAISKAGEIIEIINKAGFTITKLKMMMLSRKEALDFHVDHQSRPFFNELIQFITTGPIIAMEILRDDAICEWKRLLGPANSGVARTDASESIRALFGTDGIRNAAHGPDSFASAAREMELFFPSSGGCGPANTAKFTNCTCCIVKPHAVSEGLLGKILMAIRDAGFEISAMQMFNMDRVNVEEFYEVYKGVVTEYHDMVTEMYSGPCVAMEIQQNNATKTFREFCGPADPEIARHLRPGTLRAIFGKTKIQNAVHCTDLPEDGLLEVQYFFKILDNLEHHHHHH

T5: N+20/C-27 peptide (20 amino acids added onto the N-terminus and 27 deleted from the C-terminus of PSMGFR)
T5 peptide: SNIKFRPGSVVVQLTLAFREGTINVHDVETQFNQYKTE

T6: N-30 peptide
T6 peptide: SVSDVPFPFSAQSGA

T7: N-19 peptide
T7 peptide: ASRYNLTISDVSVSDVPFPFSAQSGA

T8: N-10/C-5 peptide
T8 peptide: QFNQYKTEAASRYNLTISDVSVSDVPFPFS

T9: N-19/C-5 peptide
T9 peptide: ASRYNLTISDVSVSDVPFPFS

T10: N-26 peptide
T10 peptide: ISDVSVSDVPFPFSAQSGA

B1: 20A10 mouse monoclonal antibody (antibody, V domains shown)
VH: EVMLVESGGGLVKPGGSLKLSCAASGFTFSTYAMSWIRQTPEKRLEWVASIGRAGSTYYSDSVKGRFTISRDNVRNILYLQMSSLRSEDTAMYYCARGPIYNDYDEFAYWGQGTLVTVSA
VL: NIMMTQSPSSLAVSAGEKVTMSCKSSQSVLYSSNQKNYLAWYQQKPGQSPKLLIYWASTRESGVPDRFTGSGSGTDFTLTISSVQAEDLAVYYCHQYLSSLTFGAGTKLELK
notes: raised against PSMGFR; also called MN-20A10; anti-PSMGFR antibody 20A10
B2: N-10 peptide (PSMGFR minus 10 amino acids from the N-terminus) (peptide)
peptide: QFNQYKTEAASRYNLTISDVSVSDVPFPFSAQSGA
notes: also called N-10 PSMGFR; PSMGFR N-10
B3: 18B4 mouse monoclonal antibody (antibody, V domains shown)
VH: EVKLEESGGGLVQPGGSMKLSCAASGFTFNDAWMDWVRQSPEKGLEWVAEIRSTANIHTTYYAESVQGRFTISRDDSKSSVYLQMNSLRAEDTGIYYCTPLLYGFAYWGQGTLVTVSA
VL: DVVMTQSPLSLPVSLGDQASISCRTSQSLVHSNGNTYLHWHLQKPGQSPKVLIYKVSSRFSGVPDRFSGSGSGTDFTLKISRVEAEDLGVYFCSQNTHVPYTFGGGTKLEIK
notes: raised against PSMGFR; also called anti-PSMGFR antibody 18B4
B4: MN-C2 mouse monoclonal anti-MUC1* antibody (antibody, V domains shown)
VH: EVQLEESGGGLVKPGGSLKLSCAASGFTFSGYAMSWVRQTPEKRLEWVATISSGGTYIYYPDSVKGRFTISRDNAKNTLYLQMSSLRSEDTAMYYCARLGGDNYYEYFDVWGAGTTVTVSS
VL: DIVITQSTASLGVSLGQRATISCRASKSVSTSGYSYMHWYQQRPGQPPKLLIYLASNLESGVPARFSGSGSGTDFTLNIHPVEEEDAATYYCQHSRELPFTFGGGTKLEIKR
notes: mouse monoclonal raised against PSMGFR; also called Min-C2
B5: MN-C3 mouse monoclonal anti-MUC1* antibody (antibody, V domains shown)
VH: QVQLQQSGPELVRPGVSVKISCKGSGYRFTDYAMNWVKQSHAKSLEWIGVISTFSGNTNFNQKFKGKATMTVDKSSSTAYMELARLTSEDSAMYYCARSDYYGPYFDYWGQGTTLTVSS
VL: DVLMTQTPLSLPVSLGDQASISCRSSQTIVHSNGNTYLEWYLQKPGQSPKLLIYKVSNRFSGVPDRFSGSGSGTDFTLKINRVEAEDLGVYYCFQGSHVPFTFGSGTKLEIK
notes: mouse monoclonal raised against PSMGFR; also called Min-C3
B6: 17H6 mouse monoclonal antibody (antibody, V domains shown)
VH: EVKLVESGGGLVQPGGSLRLSCATSGFTFTDYYMSWVRQPPRKALEWLGFIRNKANGYTAEYSASVKGRFTISRDVSQNLLYLQMNILRAEDSATYYCAKDYYGSNPAWFAYWGQGTLVTVSA
VL: B5 VL with V2I, T28S, N33S, Y37F, T74I, N81S
notes: raised against N+9/C-9; also called N+9/C-9 antibody 17H6

Assays:
[1] = biological target: T1, N+9/C-9 peptide (9 amino acids added …); test: ELISA (FIG. 64A)
[2] = biological target: T2, C-10 peptide (PSMGFR minus 10 amino …); test: ELISA (FIG. 64A)
[3] = biological target: B2; test: ELISA
[4] = biological target: T3, PSMGFR peptide (Primary Sequence of the …); test: ELISA
NME7-AB (recombinant) = biological target: T4, NME7-AB (recombinant); test: ELISA (FIG. 2A-2D)
Protocol: (§1) FIGS. 2A-2I show results of ELISA assays. MUC1* peptides PSMGFR, PSMGFR minus 10 amino acids from the N-terminus aka N−10, or PSMGFR minus 10 amino acids from the C-terminus, aka C−10 are immobilized on the plate and the following are assayed for binding: NME7-AB (FIG. 2A), MN-C2 monoclonal antibody (FIG. 2B), MN-E6 monoclonal antibody (FIG. 2C), or dimeric NME1 (FIG. 2D). […] MUC1* peptides PSMGFR minus 10 amino acids from the N-terminus aka N−10, or PSMGFR minus 10 amino acids from the C-terminus, aka C−10, are immobilized on the plate and the following are assayed for binding: MN-C3 (FIG. 2E) and MN-C8 (FIG. 2F).

[5] = biological target: T5, N+20/C-27 peptide (20 amino acids added …); test: ELISA (FIG. 64A)
[6] = biological target: T2, C-10 peptide (PSMGFR minus 10 amino …); test: ELISA
[7] = biological target: T3, PSMGFR peptide (Primary Sequence of the …); test: ELISA (FIG. 2B)
[8] = biological target: B2; test: ELISA (FIG. 2B-2C)
[9] = biological target: T5, N+20/C-27 peptide (20 amino acids added …); test: ELISA (FIG. 63)
Protocol: (§2) ELISA assays were performed to determine if, in addition to recognizing their immunizing peptide, they recognized PSMGFR, N−10 or C−10. In addition, they were tested for their ability to bind to N+20/C−27, N+9/C−9. We first did the ELISA assay on our set of reference antibodies, MNC2, MNE6, which we know are cancer-specific plus MNC3, which we know recognizes stem cells and progenitor cells (FIG. 63A-63B). None of the reference antibodies bound to the N+20/C−27 peptide. MNC2 and MNE6 cannot bind to PSMGFR peptides with 27, 10 or 9 C-terminal deletions, however, MNC3 binds to C−10 and to N+9/C−9 peptides.

[10] = biological target: T3, PSMGFR peptide (Primary Sequence of the …); test: ELISA (FIG. 9)
[11] = biological target: T1, N+9/C-9 peptide (9 amino acids added …); test: ELISA (FIG. 63)
Protocol: as §2

[12] = biological target: B2; test: Table 4 criterion 1, Binds N-10
[13] = biological target: T2, C-10 peptide (PSMGFR minus 10 amino …); test: ELISA (FIG. 2E)
Protocol: as §1

[14] = biological target: B2; test: ELISA (FIG. 69)
Protocol: (§3) In order to further refine the epitopes to which each antibody binds, a series of smaller peptides derived from the PSMGFR sequence were synthesized: N−30 (SEQ ID NO:7), N−26 (SEQ ID NO:6), N−19 (SEQ ID NO:4), N−10/C−5 (SEQ ID NO:8), N−19/C−5 (SEQ ID NO:9). Each of the antibodies was tested in an ELISA assay for their ability to bind to this refined set of peptides, plus PSMGFR, N−10 and C−10 peptides (FIG. 67-69).

N-30 peptide = biological target: T6, N-30 peptide; test: ELISA (FIG. 69)
Protocol: as §3

N-19 peptide = biological target: T7, N-19 peptide; test: ELISA (FIG. 69)
Protocol: as §3

N-10/C-5 peptide = biological target: T8, N-10/C-5 peptide; test: ELISA (FIG. 69)
Protocol: as §3

N-19/C-5 peptide = biological target: T9, N-19/C-5 peptide; test: ELISA (FIG. 69)
Protocol: as §3

N-26 peptide = biological target: T10, N-26 peptide; test: ELISA (FIG. 69)
Protocol: as §3

Binder: B1
- binding result [1]: no binding
- binding result [2]: no binding
- binding result [3]: binds
- binding result [4]: binds

Binder: B2
- binding result (NME7-AB (recombinant)): binds

Binder: B3
- binding result [5]: binds
- binding result [1]: binds
- binding result [3]: no binding
- binding result [6]: binds
- binding result [4]: binds

Binder: B4
- binding result [1]: no binding
- binding result [2]: no binding
- binding result [7]: binds
- binding result [8]: binds
- binding result [9]: no binding

Binder: B5
- binding result [10]: binds
- binding result [9]: no binding
- binding result [11]: binds
- binding result [12]: binds
- binding result [13]: binds

Binder: B6
- binding result [14]: no binding
- binding result (N-30 peptide): no binding
- binding result (N-19 peptide): no binding
- binding result (N-10/C-5 peptide): no binding
- binding result (N-19/C-5 peptide): no binding
- binding result (N-26 peptide): no binding
